Biological target: T1, His6-RpoA (alpha subunit of the RNA polymerase) (UniProt P0A7Z4 1-329)
T1 construct: RNA polymerase alpha subunit RpoA; also called His-tagged RpoA; α-subunit of the RNAP; source: E. coli BL21 (DE3) containing pET28-RpoA, purified as described previously
Assay: pull-down; 50 µg each of purified MBP or MBP-PerA and His6-RpoA in interaction buffer (2X: 100 mM NaH2PO4, 600 mM NaCl, 40 mM imidazol, 0.5% NP-40, 20% glycerol, pH 8.0), 30 min on ice, then 50 µl amylose resin 2 h at ~4 °C; Western blot with anti-MBP antibody or anti-His6-HRP probe
Details: both partners purified

T1 sequence (P0A7Z4 whole entry): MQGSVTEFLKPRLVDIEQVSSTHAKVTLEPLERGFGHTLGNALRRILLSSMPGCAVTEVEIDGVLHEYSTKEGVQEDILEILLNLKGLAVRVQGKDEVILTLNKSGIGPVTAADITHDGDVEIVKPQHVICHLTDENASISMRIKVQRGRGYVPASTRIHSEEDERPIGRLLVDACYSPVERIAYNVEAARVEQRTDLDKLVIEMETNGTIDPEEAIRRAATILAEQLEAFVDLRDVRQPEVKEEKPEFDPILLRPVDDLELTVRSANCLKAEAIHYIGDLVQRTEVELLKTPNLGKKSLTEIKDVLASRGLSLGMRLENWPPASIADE

B1: MBP-PerA fusion (natural protein)
chain: MLTSKKEMQSSENKQEENLALLLTNYISYQNIVIFTGGNQFKIRNKKEFTEYTIESNSLFFLAKNTHWDMEIVGIDNSNPYRKIIIDDALIKLLHSISSDDSCYVKKKIFTANLNEMQLNIVSNIITDIKYSGNNKKIFKILYLLSFFNDYNDIVNVILSASSKSIVDRVIKVIELDISKNWKLGDVSSSMFMSDSCLRKQLNKENLTFKKIMLDIKMKHASLFLRTTDKNIDEISCLVGFNSTSYFIKVFKEYYNTTPKKYNGVYSITQGTLP
notes: 274 residues; pMalC2xa derivative; also called BfpT; MBP-PerA chimera; source: expressed from pMALT2; over-expressed in EPEC E2348/69 ΔperA with 0.3 mM IPTG, in soluble lysate, for the co-purification
Question: Does B1 bind?
Answer: Result: binds
